Source: patent US20250264471

Target: Biotin-Crosstide (Anaspec)

B1: Akt1-S473E-T308P (protein)
chain: HHHHHHMDFRSGSPSDNSGAEEMEVSLAKPKHRVTMNEFEYLKLLGKGTFGKVILVKEKATGRYYAMKILKKEVIVAKDEVAHTLTENRVLQNSRHPFLTALKYSFQTHDRLCFVMEYANGGELFFHLSRERVFSEDRARFYGAEIVSALDYLHSEKNVVYRDLKLENLMLDKDGHIKITDFGLCKEGIKDGATMKTFCGTPEYLAPEVLEDNDYGRAVDWWGLGVVMYEMMCGRLPFYNQDHEKLFELILMEEIRFPRTLGPEAKSLLSGLLKKDPKQRLGGGSEDAKEIMQHRFFAGIVWQHVYEKKLSPPFKPQVTSETDTRYFDEEFTAQMITITPPDQDDSMECVDSERRPHFPQFEYSASSTA
Q: B1 was tested. Which KM (µM) (present results), peptide substrate did it give?
A: 9 µM
